Laboratory results: PMC7498356

Key:
[1] = molecular target: T1, TDRD5 LOTUS domain 3 (L3) (Mus musculus, UniProt Q5VCS6 291-365); test: pull-down
T1 sequence: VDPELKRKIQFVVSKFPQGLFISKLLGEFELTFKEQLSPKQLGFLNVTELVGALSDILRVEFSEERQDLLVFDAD

[2] = molecular target: T2, TDRD5 LOTUS domain 2 (L2) (Mus musculus, UniProt Q5VCS6 122-197); test: pull-down
T2 sequence: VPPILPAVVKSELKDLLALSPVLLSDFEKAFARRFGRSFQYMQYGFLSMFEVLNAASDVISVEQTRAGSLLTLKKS

[3] = molecular target: T3, TDRD5 LOTUS domain 1 (L1) (Mus musculus, UniProt Q5VCS6 7-80); test: pull-down
T3 sequence: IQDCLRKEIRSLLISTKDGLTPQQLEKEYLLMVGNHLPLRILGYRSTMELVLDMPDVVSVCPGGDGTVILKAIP

[4] = molecular target: T1, TDRD5 LOTUS domain 3 (L3); test: pull-down, ELISA
[5] = molecular target: T2, TDRD5 LOTUS domain 2 (L2); test: pull-down, ELISA
[6] = molecular target: T3, TDRD5 LOTUS domain 1 (L1); test: pull-down, ELISA
Oskar LOTUS (eLOTUS) = molecular target: T4, Oskar LOTUS (eLOTUS) (Drosophila, UniProt P25158 139-241); test: ELISA
T4 sequence: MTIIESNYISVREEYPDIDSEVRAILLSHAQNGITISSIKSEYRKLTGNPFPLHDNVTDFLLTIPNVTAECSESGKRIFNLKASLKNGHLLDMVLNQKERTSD

TP0894-LOTUS = molecular target: T5, TP0894-LOTUS (Treponema pallidum subsp. pallidum str. …, UniProt O83864 178-253); test: ELISA
T5 sequence: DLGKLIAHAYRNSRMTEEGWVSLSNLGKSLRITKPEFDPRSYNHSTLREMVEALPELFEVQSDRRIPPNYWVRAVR

human TDRD7 L1 = human TDRD7 L1 (Homo sapiens, UniProt Q8NHU6 3-76); test: ELISA
TDRD7 L3 = molecular target: T6, TDRD7 L3 (Mus musculus, UniProt Q8K1H1 325-394); test: ELISA
T6 sequence: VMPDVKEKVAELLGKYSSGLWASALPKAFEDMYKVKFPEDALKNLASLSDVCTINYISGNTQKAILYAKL

human MARF1 L1 = molecular target: T7, human MARF1 L1 (Homo sapiens, UniProt Q9Y4F3 875-949); test: ELISA
T7 sequence: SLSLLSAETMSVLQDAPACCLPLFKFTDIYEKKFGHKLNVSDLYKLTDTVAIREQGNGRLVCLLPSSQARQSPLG

TDRD7 L1 = molecular target: T8, TDRD7 L1 (Mus musculus, UniProt Q8K1H1 3-76); test: ELISA
T8 sequence: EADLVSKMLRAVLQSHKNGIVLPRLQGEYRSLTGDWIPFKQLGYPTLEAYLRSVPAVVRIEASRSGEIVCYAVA

AT3G52980-LOTUS = molecular target: T9, AT3G52980-LOTUS (plant, UniProt Q9LF94 199-282); test: ELISA
T9 sequence: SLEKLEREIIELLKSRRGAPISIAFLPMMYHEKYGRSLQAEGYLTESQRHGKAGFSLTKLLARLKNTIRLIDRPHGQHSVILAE

TDRD7 L2 = molecular target: T10, TDRD7 L2 (Mus musculus, UniProt Q8K1H1 222-291); test: ELISA
T10 sequence: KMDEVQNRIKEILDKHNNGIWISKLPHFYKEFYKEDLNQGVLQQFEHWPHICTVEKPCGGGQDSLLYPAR

Tejas LOTUS = molecular target: T11, Tejas LOTUS (Drosophila, UniProt A1Z9P1 6-79); test: ELISA
T11 sequence: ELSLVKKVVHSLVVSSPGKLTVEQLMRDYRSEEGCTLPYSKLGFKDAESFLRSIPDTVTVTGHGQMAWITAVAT

human TDRD5 L1 = molecular target: T12, human TDRD5 L1 (Homo sapiens, UniProt Q8NAT2 7-80); test: ELISA
T12 sequence: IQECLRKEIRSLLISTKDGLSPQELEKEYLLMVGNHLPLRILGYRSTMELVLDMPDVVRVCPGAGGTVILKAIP

human MARF1 L7 = molecular target: T13, human MARF1 L7 (Homo sapiens, UniProt Q9Y4F3 1411-1485); test: ELISA
T13 sequence: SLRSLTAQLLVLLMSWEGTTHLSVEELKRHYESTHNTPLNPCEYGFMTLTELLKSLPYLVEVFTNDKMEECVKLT

human TDRD7 L1, sequence (Q8NHU6 3-76): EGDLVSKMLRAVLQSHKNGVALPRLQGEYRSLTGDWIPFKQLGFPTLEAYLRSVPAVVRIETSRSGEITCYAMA

B1: Poly(CA) (ssRNA)
RNA: CACACACACACACACACACACACACACACA
[1]
  binding result: no binding
[2]
  binding result: no binding
[3]
  binding result: no binding

B2: Poly(A) (ssRNA)
RNA: AAAAAAAAAAAAAAAAAAA
[4]
  binding result: no binding
[5]
  binding result: no binding
[6]
  binding result: no binding

B3: TERRA G4 mut RNA (ssRNA)
RNA: UUACCGUUACCGUUACCGUUACCG
[1]
  binding result: no binding
[2]
  binding result: no binding
[3]
  binding result: no binding
Oskar LOTUS (eLOTUS)
  binding result: no binding
TP0894-LOTUS
  binding result: no binding
Human TDRD7 L1
  binding result: no binding
TDRD7 L3
  binding result: no binding
Human MARF1 L1
  binding result: no binding
TDRD7 L1
  binding result: no binding
AT3G52980-LOTUS
  binding result: no binding
TDRD7 L2
  binding result: no binding
Tejas LOTUS
  binding result: no binding
Human TDRD5 L1
  binding result: no binding
Human MARF1 L7
  binding result: no binding

B4: Poly(CU) (ssRNA)
RNA: CUCUCUCUCUCUCUCUCUCUCUCUCUCUCU
[1]
  binding result: no binding
[2]
  binding result: no binding
[3]
  binding result: no binding

B5: Poly(GU) (ssRNA)
RNA: GUGUGUGUGUGUGUGUGUGUGUGUGUGUGU
[1]
  binding result: no binding

B6: Cluster G4-2 RNA (structured_RNA)
RNA: AGGAGGGAAGGGGAGGGGAGGG
[4]
  binding result: no binding

B7: Cluster G4-1 mut RNA (ssRNA)
RNA: GGUCCGCAGCCGAGUCCGGGUCCG
[1]
  binding result: no binding
[2]
  binding result: no binding
[3]
  binding result: no binding
Oskar LOTUS (eLOTUS)
  binding result: no binding
TP0894-LOTUS
  binding result: no binding
Human TDRD7 L1
  binding result: no binding
TDRD7 L3
  binding result: no binding
Human MARF1 L1
  binding result: no binding
TDRD7 L1
  binding result: no binding
AT3G52980-LOTUS
  binding result: no binding
TDRD7 L2
  binding result: no binding
Tejas LOTUS
  binding result: no binding
Human TDRD5 L1
  binding result: no binding
Human MARF1 L7
  binding result: no binding

B8: TERRA G4 RNA (structured_RNA)
RNA: UUAGGGUUAGGGUUAGGGUUAGGG
Oskar LOTUS (eLOTUS)
  binding result: binds
TP0894-LOTUS
  binding result: binds
Human TDRD7 L1
  binding result: binds
TDRD7 L3
  binding result: binds
Human MARF1 L1
  binding result: binds
TDRD7 L1
  binding result: binds
AT3G52980-LOTUS
  binding result: binds
TDRD7 L2
  binding result: binds
Tejas LOTUS
  binding result: binds
Human TDRD5 L1
  binding result: binds
Human MARF1 L7
  binding result: binds
[4]
  binding result: no binding

B9: Poly(GA) (ssRNA)
RNA: GAGAGAGAGAGAGAGAGAGAGAGAGAGAGA
[1]
  binding result: no binding

B10: Cluster G4-2 mut RNA (ssRNA)
RNA: AGGACCGAAGCCGAGCCGAGCC
[1]
  binding result: no binding
[2]
  binding result: no binding
[3]
  binding result: no binding

B11: Poly(U) (ssRNA)
RNA: UUUUUUUUUUUUUUUUUUU
[4]
  binding result: no binding
[5]
  binding result: no binding
[6]
  binding result: no binding
